Experimental data from ChEMBL document CHEMBL2074192, “Functional analysis and androgen-regulated expression of mouse organic anion transporting polypeptide 1 (Oatp1) in the kidney” (Biochim Biophys Acta, 2001).

Key:
[1] = substrate: C[C@]12CC[C@@H]3c4ccc(O)cc4CC[C@H]3[C@@H]1CC[C@@H]2O[C@@H]1O[C@H](C(=O)O)[C@@H](O)[C@H](O)[C@H]1O; test: (§1) TP_TRANSPORTER: uptake in Xenopus laevis oocytes; assay type: functional, cell-based, Oocyte
[2] = substrate: [H][C@@]12CC=C3C[C@@H](OS(=O)(=O)O)CC[C@]3(C)[C@@]1([H])CC[C@]1(C)C(=O)CC[C@@]21[H]; test: as §1; assay type: functional, cell-based, Oocyte

B1: Solute carrier organic anion transporter family member 1A1 (Mus musculus) (protein)
chain: MEETEKKVATQEGRFFSKMKVFLMSLTCAYLAKSLSGVYMNSMLTQIERQFGIPTSVVGFITGSFEIGNLLLIVFVSYFGRKLHRPIIIGVGCVVMGLGCFLMASPHFLMGRYKYETTISPTSNLSSNSFLCIENRTQTLKPTQDPTECVKEIKSLMWIYVLIGNTMRGIGETPIMPLGISYIEDFAKSENSPLYIGILEMGKIVGPIIGLLLGSFFARVYVDIGSVNTDDLTITPTDTRWVGAWWIGFLVCAGVNILTSIPFFFFPKTLPKKELQDNVDVTKYEKVEKHRERAKKENLGITKDFLPFMKSLCCNPIYMLFSLTSVLQINGFASTFTFLPKYLEQQYGKSTSEAVFLIGVYSLPPVCLGYLISGFIMKKFKITVKKAAYIAFGLSLSEYFIFLCNYLLTCDNFPVAGLTTSYKGVQHPLYGEKNVLADCNTRCSCLTDTWDPVCGDNGLAYMSACLAGCEKSVGTGTNMVFQNCSCIGSSGNSSAVLGLCKKGPECDNKLQYFLIKSVFSSFIFSLAAIPGYMVLLRCVKSEEKSIGVGLHAFFIRLLAGIPAPVYFGALIDRTCLHWGTLKCGQPGACRMYDINRFRHIYLGLPAAVRGSSFLPAVFILILMRKFHFPGDIHSPDTELAEMKLTEKESECTDVCRSPKVENDGELKTKL
Q: Which Km [1] does the source give for B1 here?
A: Its Km is 8.2 µM.

Q: What about the Km [2] of the same protein?
A: The Km was 8.2 µM.
